Laboratory results published in patent publication US12338277.

Molecular target: SHIVAD8EO envelope on pseudotyped virus (SHIV (HIV-1 AD8-derived env))
Assay: cell-based or functional assay

## 3BNC117 (antibody)
  IC50, TZM-bl neutralization of SHIVAD8EO: 0.14 µg/mL
